Measurements taken from paper PMC12489471, “A multi-dentate, cooperative interaction between endo- and exo-ribonucleases within the bacterial RNA degradosome” (Nucleic Acids Research, 2025).
Read-outs that look alike come from different tables or passages of the source. Where no end group is shown, it is not given here.

Columns and labels:
[1] = molecular target: S. enterica PNPase core (Salmonella enterica serovar Typhimurium) (UniProt Q8ZLT3); test: cryo-EM structure; purified PNPase core and RNase E-muGFP-CHis mixed 1:2, complex separated on Superdex 200 Increase in 20 mM Tris–HCl pH 8.0, 25 mM MgCl2, 150 mM KCl, 1 mM TCEP; 8 mM CHAPSO; E. coli and S. enterica proteins
PNPase = molecular target: T1, PNPase (Escherichia coli, UniProt P05055); type: binding, E. coli; conditions: SPR, 25°C, immobilized PNPase C-His, HEPES pH 7.2, contact 60 s
T1 construct: made in house; host or cells: E. coli Evo21(DE3)
From the text: Briefly, at the N-terminal of the construct, there is an Hisx6 affinity tag that will be used for affinity purification. Following the Hisx6 tag there is an maltose-binding protein (MBP) tag with a TEV cleavage site to maintain solubility of the peptides. Following the MBP tag the gene encoding the peptide is inserted, and is then followed by intein, a self-cleavable tag, followed by a choline-binding domain, which can be used for an extra step of affinity purification. […] After expression, cells were harvested, resuspended in Lysis Buffer 2 (20 mM Tris–HCl, pH 8.0, 80 mM KCl, 300 mM NaCl, 20 mM Imidazole, 0.5 mM TCEP), and lysed with a cell disruptor (Emulsiflex, Avestin). […] After subsequent rounds of washing with Ni Equilibration Buffer supplemented with, respectively, 0.1% Triton-X, 1 M NaCl, and a final wash in Ni Equilibration Buffer, samples were eluted with Ni Elution Buffer (20 mM Tris–HCl, pH 8.0, 300 mM NaCl, 300 mM imidazole, 0.5 mM TCEP). Enriched fractions were then supplemented with 100 mM β-mercaptoethanol to catalyse intein self-cleavage overnight at room temperature. Treated samples were filtered and loaded on an amylose gravity flow column, equilibrated with Amy Equilibration Buffer (20 mM Tris–HCl, pH 8.0, 20 mM NaCl, 20 mM imidazole, 2 mM β-mercaptoethanol) and after washing, His-tagged TEV protease was applied to the resin and incubated at 4°C for 2 h.
PNPase carrying a C-terminal Hisx6 tag was expressed from pExp-cis-Ec_PNP-CHis vector in E. coli Evo21(DE3) cells, induced with 0.4 mM IPTG, at 18°C overnight. After expression, cells were harvested and resuspended in Lysis Buffer 2 (20 mM Tris–HCl, pH 8.0, 80 mM KCl, 300 mM NaCl, 20 mM imidazole, 0.5 mM TCEP), and lysed with a cell disruptor (Emulsiflex, Avestin). […] After subsequent rounds of washing with equilibration buffer supplemented with 0.1% Triton-X, or 1 M NaCl, the sample was eluted with Ni PNPCHis Elution Buffer (20 mM NaH2PO4, pH 8.0, 300 mM NaCl, 300 mM KCl, 5 mM MgCl2, 300 mM imidazole, pH 7.5, 10 mM β-mercaptoethanol). […] Fractions containing PNPase were run through a HiPrep™ 26/10 Desalting Column (GE Healthcare) and buffer exchanged to Q PNPCHis A (20 mM NaH2PO4, pH 8.0, 30 mM NaCl, 10% glycerol, 0.5 mM TCEP).
Interaction measurements were made using a Biacore T200 instrument (GE) at 25°C. PNPase with a 6xHisTag at the CTD was immobilized on a Series S Sensor Chip NTA (Cytiva) to provide a signal of 5 response units (RU). […] For the SPR analysis of the point mutants, binding to PNPase was measured at four different concentrations (0, 12.5, 25, and 50 nM). All concentrations were run in duplicates. The contact time was 60 s, while the dissociation time was 120 s, at a […] flow rate. […] The chip surface was regenerated with 350 mM EDTA in water, following manufacturer's instructions. Data were processed using the manufacturer’s BIAevaluation software.

[2] = molecular target: T2, PNPase carrying a C-terminal Hisx6 tag (E. coli polynucleotide phosphorylase) (E. coli, UniProt P05055 1-711); test: SPR; PNPase with C-terminal His6 tag immobilised on Series S Sensor Chip NTA (5 RU); Biacore T200, 25°C; 20 mM HEPES pH 7.2, 150 mM NaCl, 5 mM MgCl2, 0.5 mM TCEP, 0.05% Tween 20; six peptide concentrations up to 9000 nM (up to 5000 nM for RNase E 985–1061); contact 60 s, dissociation 120 s; conditions: both partners purified
T2 construct: polynucleotide phosphorylase (PNPase), E. coli; Immobilised through the His tag on an NTA chip for SPR; also called PNPase C-His; PNPase with a 6xHisTag at the CTD; source: E. coli Evo21(DE3), purified (Ni-NTA, butyl-Sepharose HIC, Q, Superdex S200); not shown: His6, C-terminal, kept
T2 sequence (looked up): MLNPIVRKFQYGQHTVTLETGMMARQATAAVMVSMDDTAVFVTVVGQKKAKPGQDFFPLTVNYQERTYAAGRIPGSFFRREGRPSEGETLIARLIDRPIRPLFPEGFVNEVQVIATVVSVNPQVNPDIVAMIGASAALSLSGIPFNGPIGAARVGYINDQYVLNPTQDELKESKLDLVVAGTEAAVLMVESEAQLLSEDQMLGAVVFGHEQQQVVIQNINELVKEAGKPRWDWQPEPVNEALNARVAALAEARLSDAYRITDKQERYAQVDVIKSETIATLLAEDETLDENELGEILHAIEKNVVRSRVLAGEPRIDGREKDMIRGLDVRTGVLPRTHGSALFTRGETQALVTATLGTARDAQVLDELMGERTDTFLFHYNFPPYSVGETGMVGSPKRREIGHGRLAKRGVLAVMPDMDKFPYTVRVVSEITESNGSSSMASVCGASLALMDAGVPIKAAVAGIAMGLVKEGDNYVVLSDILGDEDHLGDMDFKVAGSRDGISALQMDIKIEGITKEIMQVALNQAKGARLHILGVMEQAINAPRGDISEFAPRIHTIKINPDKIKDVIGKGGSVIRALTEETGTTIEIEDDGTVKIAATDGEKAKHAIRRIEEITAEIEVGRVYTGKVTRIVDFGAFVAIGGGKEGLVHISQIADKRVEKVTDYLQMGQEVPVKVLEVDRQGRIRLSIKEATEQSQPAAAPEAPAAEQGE

[3] = molecular target: T2, PNPase carrying a C-terminal Hisx6 tag …; test: as above; conditions: both partners purified; remark: listed apart in the source
[4] = molecular target: T3, PNPase carrying a C-terminal Hisx6 tag (E. coli polynucleotide phosphorylase) (E. coli, UniProt P05055 1-711); test: SPR; conditions: both partners purified
T3 construct: Held on the NTA chip by its His tag in the SPR; also called PNPase C-His; PNPCHis; source: E. coli Evo21(DE3), purified (Ni-NTA, butyl-Sepharose, Q, SEC); not shown: His6, C-terminal, kept
T3 sequence (looked up): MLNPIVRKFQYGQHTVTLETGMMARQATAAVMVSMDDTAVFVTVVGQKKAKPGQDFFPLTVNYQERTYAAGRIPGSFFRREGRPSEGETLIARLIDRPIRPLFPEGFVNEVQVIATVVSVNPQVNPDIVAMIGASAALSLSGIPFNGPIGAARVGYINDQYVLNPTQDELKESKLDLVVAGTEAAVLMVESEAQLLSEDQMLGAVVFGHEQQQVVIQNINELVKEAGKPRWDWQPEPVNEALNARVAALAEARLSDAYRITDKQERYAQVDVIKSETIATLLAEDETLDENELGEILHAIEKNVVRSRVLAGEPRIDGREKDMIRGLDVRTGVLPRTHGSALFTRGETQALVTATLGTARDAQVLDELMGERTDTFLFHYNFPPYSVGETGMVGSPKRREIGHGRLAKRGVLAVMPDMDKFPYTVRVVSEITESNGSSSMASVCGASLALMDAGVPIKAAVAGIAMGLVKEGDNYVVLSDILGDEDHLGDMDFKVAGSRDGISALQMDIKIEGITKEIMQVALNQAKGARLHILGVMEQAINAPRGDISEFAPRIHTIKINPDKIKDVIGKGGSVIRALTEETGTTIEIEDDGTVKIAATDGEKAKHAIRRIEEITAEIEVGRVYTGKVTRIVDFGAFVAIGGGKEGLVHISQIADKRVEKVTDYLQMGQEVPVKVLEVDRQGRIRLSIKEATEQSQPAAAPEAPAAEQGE

PNPase core = test: Cryo-EM of E. coli PNPase core:RNase E complex; type: binding; conditions: 20 mM Tris–HCl pH 8.0, 25 mM MgCl2, 150 mM KCl, 1 mM TCEP
Description: The PNPase core encoding sequence from E. coli (aa 1–552), Salmonella enterica serovar Typhimurium (UniProt: Q8ZLT3) (aa 1–552), or Pseudomonas aeruginosa (strain PAO1, UniProt: Q9HV59) (aa 1–553) was amplified using corresponding genomic DNA as a template and cloned into pExp-Mxe-CHis expression vector. The protein of interest, produced as a fusion with C-terminal 8×His-tagged Mycobacterium xenopi GyrA intein, was expressed in Evo21(DE3) cells at 18°C overnight following induction with 0.4 mM IPTG. […] After cleavage, the protein buffer was exchanged using HiPrep 26/10 desalting column (Cytiva), and the protein solution was reapplied to Ni-NTA resin to remove His-tagged intein and uncleaved material. […]
Purified PNPase core and RNE-muGFP-CHis proteins were mixed in 1:2 ratio and their complex were separated on the Superdex 200 Increase 10/300 GL column (Cytiva) equilibrated with cryo-EM Buffer (20 mM Tris–HCl, pH 8.0, 25 mM MgCl2, 150 mM KCl, 1 mM TCEP). […] The samples were mixed with CHAPSO (3-([3-cholamidopropyl]dimethylammonio)-2-hydroxy-1-propanesulfonate) at a final concentration of 8 mM before being applied onto R2/2 Au Ultrafoil grids (Quantifoil) that had been pre-treated by glow-discharge (PELCO easiGLOW: 60 s, 25 mA, 0.39 mBar). […]

S. enterica RNase E 921–1067-muGFP (domain or fragment)
stoichiometry N (RNase E peptide per PNPase trimer) [1]: 1

GAAGGHTATHHASAAPARPQPVE [RNase E 1039-1061]
KD range in words (PNPase; listed as RNase E peptide 1039–1061): micromolar range | KD range in words (PNPase; listed as residues 1039–1061): low μM range

B1: RNase E 985-1053 (domain or fragment, E. coli, UniProt P21513 985-1053, looked up)
chain: VAAEVETVAAVEPEVTVEHNHATAPMTRAPAPEYVPEAPRHSDWQRPTFAFEGKGAAGGHTATHHASAA
notes: the SPR methods name a peptide 960–1053; Lacks the terminal Pro-rich motif; Limits differ between results (985–1053) and methods (960–1053); also called RNase E peptide 985–1053; RNase E 960–1053 (methods); source: E. coli Evo21(DE3), pMxe vector, purified (Ni-NTA, amylose, TEV, Q, Superdex 75); not shown: His6, N-terminal, cleaved; MBP, N-terminal, cleaved; intein, C-terminal, cleaved
Kd [2]: 100 µM | Kd [3]: 11.5 µM | koff [3]: 0.339 s⁻¹ | kon [3]: 29400 M⁻¹ s⁻¹

B2: RNase E 960 – 1061 R1056A (domain or fragment, E. coli, UniProt P21513 960-1061, looked up)
chain: VVETAEVVVAEPEVVAQPAAPVVAEVAAEVETVAAVEPEVTVEHNHATAPMTRAPAPEYVPEAPRHSDWQRPTFAFEGKGAAGGHTATHHASAAPAAPQPVE
notes: source: E. coli Evo21(DE3), purified (Ni-NTA, amylose, TEV cleavage, Q, SEC); not shown: His6, N-terminal, cleaved; MBP, N-terminal, cleaved; intein, C-terminal, cleaved
kon [4]: 150000 M⁻¹ s⁻¹

B3: RNase E 921–1061-muGFP (protein, UniProt P21513 921-1061, looked up, fragment)
chain: AVTEQPQVITESDVAVAQEVAEQAEPVVEPQEETADIEEVVETAEVVVAEPEVVAQPAAPVVAEVAAEVETVAAVEPEVTVEHNHATAPMTRAPAPEYVPEAPRHSDWQRPTFAFEGKGAAGGHTATHHASAAPARPQPVE
modifications: muGFP fusion
binding mode / stoichiometry with E. coli PNPase core (PNPase core): only one RNase E peptide engages with a PNPase trimer, interacting with two protomers
